The values below come from US20220072157.

This series deals with C3b, P01024.
C3b, P01024, sequence (P01024 whole entry, looked up): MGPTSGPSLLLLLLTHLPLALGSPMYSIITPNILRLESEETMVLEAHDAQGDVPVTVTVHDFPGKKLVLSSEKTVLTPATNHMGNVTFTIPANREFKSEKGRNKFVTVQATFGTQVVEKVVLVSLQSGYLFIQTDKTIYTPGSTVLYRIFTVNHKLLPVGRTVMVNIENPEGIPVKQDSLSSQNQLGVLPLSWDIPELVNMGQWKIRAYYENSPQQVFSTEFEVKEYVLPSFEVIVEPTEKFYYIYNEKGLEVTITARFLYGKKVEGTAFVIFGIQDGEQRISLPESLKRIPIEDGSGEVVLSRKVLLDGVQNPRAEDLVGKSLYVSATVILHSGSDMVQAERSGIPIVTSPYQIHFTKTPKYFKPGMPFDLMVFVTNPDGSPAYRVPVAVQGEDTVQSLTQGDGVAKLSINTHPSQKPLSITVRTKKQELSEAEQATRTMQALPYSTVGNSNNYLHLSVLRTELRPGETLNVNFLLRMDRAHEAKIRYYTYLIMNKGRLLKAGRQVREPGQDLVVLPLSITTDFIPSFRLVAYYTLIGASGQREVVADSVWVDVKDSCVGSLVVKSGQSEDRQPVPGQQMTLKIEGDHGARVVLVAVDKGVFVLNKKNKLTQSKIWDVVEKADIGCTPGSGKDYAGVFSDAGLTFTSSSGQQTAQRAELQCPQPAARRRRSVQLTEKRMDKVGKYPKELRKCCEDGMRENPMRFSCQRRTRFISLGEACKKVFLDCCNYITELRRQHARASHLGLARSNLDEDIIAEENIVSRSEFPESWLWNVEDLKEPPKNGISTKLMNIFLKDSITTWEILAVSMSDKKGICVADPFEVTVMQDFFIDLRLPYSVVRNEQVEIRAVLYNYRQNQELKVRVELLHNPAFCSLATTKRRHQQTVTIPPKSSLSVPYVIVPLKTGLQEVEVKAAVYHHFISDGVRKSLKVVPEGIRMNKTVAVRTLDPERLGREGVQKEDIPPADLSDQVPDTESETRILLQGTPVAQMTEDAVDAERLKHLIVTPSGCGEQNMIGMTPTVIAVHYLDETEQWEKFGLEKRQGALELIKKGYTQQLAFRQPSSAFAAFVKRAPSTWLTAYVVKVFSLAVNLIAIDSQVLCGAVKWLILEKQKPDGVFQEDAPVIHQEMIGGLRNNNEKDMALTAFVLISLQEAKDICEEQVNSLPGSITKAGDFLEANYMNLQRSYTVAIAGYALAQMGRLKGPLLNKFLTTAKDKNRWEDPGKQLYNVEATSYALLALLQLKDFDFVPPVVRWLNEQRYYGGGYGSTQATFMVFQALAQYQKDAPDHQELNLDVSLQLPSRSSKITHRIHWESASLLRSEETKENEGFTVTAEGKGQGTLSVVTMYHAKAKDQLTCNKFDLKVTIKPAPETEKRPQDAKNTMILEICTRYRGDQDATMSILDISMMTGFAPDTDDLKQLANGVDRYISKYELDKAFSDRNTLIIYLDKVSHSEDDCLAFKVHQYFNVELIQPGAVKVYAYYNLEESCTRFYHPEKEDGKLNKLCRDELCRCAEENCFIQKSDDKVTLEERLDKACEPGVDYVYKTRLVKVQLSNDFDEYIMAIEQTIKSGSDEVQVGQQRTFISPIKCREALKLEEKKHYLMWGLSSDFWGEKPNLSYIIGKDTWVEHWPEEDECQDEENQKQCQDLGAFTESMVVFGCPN

B1: Complement Factor I (CFI) (protein)
chain: KVTYTSQEDLVEKKCLAKKYTHLSCDKVFCQPWQRCIEGTCVCKLPYQCPKNGTAVCATNRRSFPTYCQQKSLECLHPGTKFLNNGTCTAEGKFSVSLKHGNTDSEGIVEVKLVDQDKTMFICKSSWSMREANVACLDLGFQQGADTQRRFKLSDLSINSTECLHVHCRGLETSLAECTFTKRRTMGYQDFADVVCYTQKADSPMDDFFQCVNGKYISQMKACDGINDCGDQSDELCCKACQGKGFHCKSGVCIPSQYQCNGEVDCITGEDEVGCAGFASVTQEETEILTADMDAERRRIKSLLPKLSCGVKNRMHIRRKRIVGGKRAQLGDLPWQVAIKDASGITCGGIYIGGCWILTAAHCLRASKTHRYQIWTTVVDWIHPDLKRIVIEYVDRIIFHENYNAGTYQNDIALIEMKKDGNKKDCELPRSIPACVPWSPYLFQPNDTCIVSGWGREKDNERVFSLQWGEVKLISNCSKFYGNRFYEKEMECAGTYDGSIDACKGDSGGPLVCMDANNVTYVWGVVSWGENCGKPEFPGVYTKVANYFDWISYHVGRPFISQYNV
As to B1, the “cleavage of C3b to iC3b quantified by ELISA (cofactor assay; CFI and C3b fixed, CFH or FHL1 titrated)” value is given as “a minimum functional CFI:CFH/FHL1 molar ratio is 1:2”.
